The assay concerns the target murine PD-L1 on CHO-K1 cells (murine, UniProt Q9EP73 19-290). The experiment in a line: cell-based or functional assay.

The text below walks through data of US20220409550A1 (KOREA INSTITUTE OF SCIENCE AND TECHNOLOGY, published 2022).

Chain of murine PD-L1 on CHO-K1 cells (Q9EP73 19-290): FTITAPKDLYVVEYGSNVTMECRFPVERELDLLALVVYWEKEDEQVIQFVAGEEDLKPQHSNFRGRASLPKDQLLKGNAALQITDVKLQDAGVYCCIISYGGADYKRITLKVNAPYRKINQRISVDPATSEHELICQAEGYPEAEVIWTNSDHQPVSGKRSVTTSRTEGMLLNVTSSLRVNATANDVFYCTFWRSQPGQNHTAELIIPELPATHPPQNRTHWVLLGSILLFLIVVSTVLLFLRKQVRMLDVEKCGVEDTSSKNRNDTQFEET

B1: monomeric form of soluble PD-1 (sPD-1) of the ecto-domain of murine PD-1 (receptor)
chain: MHHHHHHLEVPNGPWRSLTFYPAWLTVSEGANATFTCSLSNWSEDLMLNWNRLSPSNQTEKQAAFCNGLSQPVQDARFQIIQLPNRHDFHMNILDTRRNDSGIYLCGAISLHPKAKIEESPGAELVVT
For the molecule B1, the “half maximal effective concentration (EC50), NFAT-mediated luciferase expression, bioluminescent PD-1/PD-L1 blockade bioassay” value was 457 nM.
